Experimental data: PMC12607630, “ZapC crosslinks FtsZ filaments through a dual-binding mechanism modulated by the intrinsically disordered linker of FtsZ in Escherichia coli” (mBio, 2025)
Values joined by “and” are separate entries in the source; they are usually repeats but may differ in a detail not shown here. Equal values may be shown once.

Target: T1, FtsZ (untagged, wild type) (Escherichia coli, UniProt P0A9A6 1-383)
T1 construct: also called wild-type FtsZ; source: E. coli BL21(DE3), plasmid pLY17, purified (Ni-NTA); 6×His-SUMO tag removed with Ulp1; not shown: 6×His-SUMO, N-terminal, cleaved
T1 sequence (looked up): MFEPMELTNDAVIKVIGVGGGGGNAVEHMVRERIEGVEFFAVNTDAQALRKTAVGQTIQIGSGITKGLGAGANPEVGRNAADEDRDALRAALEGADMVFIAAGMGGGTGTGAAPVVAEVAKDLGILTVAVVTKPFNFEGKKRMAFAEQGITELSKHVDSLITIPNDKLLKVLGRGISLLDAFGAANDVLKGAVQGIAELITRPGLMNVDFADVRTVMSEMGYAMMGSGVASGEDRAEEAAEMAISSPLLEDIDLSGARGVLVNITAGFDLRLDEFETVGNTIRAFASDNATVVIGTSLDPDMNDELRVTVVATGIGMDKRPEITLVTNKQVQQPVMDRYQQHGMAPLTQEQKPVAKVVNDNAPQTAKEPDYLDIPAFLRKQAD
Test: BLI; 6×His-ZapC or its mutants (0.5 µM) loaded on Ni-NTA biosensors, untagged FtsZ or its variants in solution; Octet-Red96, 30°C, 1× Pol buffer (50 mM HEPES-NaOH pH 6.8, 50 mM KCl, 10 mM MgCl2); apparent Kd from the signal at the end of association against concentration, one-site fit; three repeats with mean (X) and SD
Details: both partners purified

B1: 6×His-ZapC (natural protein)
chain: not shown
notes: ZapC, FtsZ-associated protein of Escherichia coli; Construction of pSD323 is not described; also called His-tagged ZapC; source: E. coli, plasmid pSD323 (pQE80, Plac::6×His-ZapC), purified (Ni-NTA); not shown: His6, N-terminal, kept
Question: With B1 as the binder, how does the Kd read?
Answer: The Kd was 377 nM and 395 nM and 364 nM and 379 nM.
